The supplement of paper PMC9876800

System: peptide library, one residue held at a place counted from the S/T acceptor
Experiment: relative phosphorylation of the sub-library (ratio to the mean residue at this position); higher = residue favoured
In short: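 Relative sub-library phosphorylation is a ratio to the mean residue at the same position. Purified recombinant kinases were incubated under kinase-specific conditions with biotinylated degenerate peptide sub-libraries, each fixing one residue at one position around a central Ser/Thr, using 50 μM peptide and 50 μM ATP spiked with γ-32P-ATP for 90 min. Spots captured on streptavidin membranes were phosphorimaged and quantified by densitometry.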

Chain of MYO3A, construct: aa1-308, human (Q8NEV4 1-308, looked up): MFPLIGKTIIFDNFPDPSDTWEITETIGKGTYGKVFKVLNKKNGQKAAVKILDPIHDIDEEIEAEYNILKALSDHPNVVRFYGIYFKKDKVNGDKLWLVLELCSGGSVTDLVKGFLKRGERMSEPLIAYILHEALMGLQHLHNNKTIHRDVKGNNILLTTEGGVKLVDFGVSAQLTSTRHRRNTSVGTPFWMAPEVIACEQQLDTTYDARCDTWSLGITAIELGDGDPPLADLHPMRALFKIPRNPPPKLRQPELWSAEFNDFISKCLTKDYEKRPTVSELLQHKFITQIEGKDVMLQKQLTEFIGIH
Chain of MAP2K5, construct: Full length, human (Q13163 whole entry, looked up): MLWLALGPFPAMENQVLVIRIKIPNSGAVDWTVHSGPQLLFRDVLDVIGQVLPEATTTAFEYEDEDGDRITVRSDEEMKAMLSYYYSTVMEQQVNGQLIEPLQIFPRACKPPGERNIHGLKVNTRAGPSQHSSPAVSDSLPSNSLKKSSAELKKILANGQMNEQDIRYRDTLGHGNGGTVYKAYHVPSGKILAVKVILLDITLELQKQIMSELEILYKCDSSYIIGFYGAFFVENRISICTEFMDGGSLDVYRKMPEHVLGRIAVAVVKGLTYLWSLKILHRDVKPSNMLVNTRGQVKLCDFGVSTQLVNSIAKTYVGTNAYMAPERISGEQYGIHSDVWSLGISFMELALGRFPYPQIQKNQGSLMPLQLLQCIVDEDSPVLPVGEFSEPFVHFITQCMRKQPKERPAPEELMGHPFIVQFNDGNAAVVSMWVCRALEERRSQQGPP
Chain of GRK4, construct: Full length, human (P32298 whole entry, looked up): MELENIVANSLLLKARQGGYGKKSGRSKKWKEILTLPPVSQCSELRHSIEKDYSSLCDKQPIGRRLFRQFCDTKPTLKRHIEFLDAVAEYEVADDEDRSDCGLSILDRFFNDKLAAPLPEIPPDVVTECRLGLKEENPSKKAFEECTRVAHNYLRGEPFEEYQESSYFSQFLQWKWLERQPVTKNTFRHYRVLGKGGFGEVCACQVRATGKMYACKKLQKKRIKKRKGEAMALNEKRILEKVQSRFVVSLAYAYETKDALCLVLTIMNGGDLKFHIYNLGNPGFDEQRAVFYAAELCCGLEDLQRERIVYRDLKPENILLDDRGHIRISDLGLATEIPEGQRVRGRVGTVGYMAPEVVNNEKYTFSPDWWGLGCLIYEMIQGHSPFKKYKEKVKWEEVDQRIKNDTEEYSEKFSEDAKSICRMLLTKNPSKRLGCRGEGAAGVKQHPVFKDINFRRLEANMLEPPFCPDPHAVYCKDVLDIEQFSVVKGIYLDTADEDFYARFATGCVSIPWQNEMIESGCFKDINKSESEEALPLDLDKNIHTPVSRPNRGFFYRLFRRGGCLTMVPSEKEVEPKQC

GRK4, construct: Full length, human (from UniProt P32298)
relative phosphorylation
Details | at +1 | at +2 | at +3 | at +4 | at -1 | at -2 | at -3 | at -4 | at -5
A fixed | 0.613 | 1.5 | 0.747 | 0.859 | 0.654 | 0.895 | 0.863 | 0.994 | 1
D fixed | 0.683 | 1.24 | 1.53 | 1.65 | 1.57 | 2.39 | 1.88 | 1.75 | 1.83
E fixed | 1.41 | 0.872 | 1.57 | 1.51 | 1.2 | 1.95 | 1.88 | 1.69 | 1.48
F fixed | 1.52 | 1.23 | 1.51 | 1.17 | 0.998 | 0.992 | 0.902 | 0.854 | 0.992
G fixed | 0.577 | 0.879 | 0.953 | 0.928 | 0.619 | 0.983 | 0.927 | 0.965 | 1.02
H fixed | 0.879 | 0.954 | 0.99 | 0.911 | 1.92 | 0.855 | 0.911 | 0.897 | 0.991
I fixed | 1.57 | 1.54 | 0.741 | 0.779 | 0.637 | 0.649 | 0.697 | 0.752 | 0.695
K fixed | 0.455 | 0.414 | 0.432 | 0.614 | 0.492 | 0.547 | 0.612 | 0.778 | 0.89
L fixed | 1.01 | 0.356 | 0.763 | 0.777 | 0.882 | 0.619 | 0.745 | 0.835 | 0.796
M fixed | 1.44 | 0.717 | 0.918 | 0.894 | 0.792 | 0.681 | 0.858 | 0.874 | 0.794
N fixed | 0.674 | 0.753 | 0.685 | 0.906 | 1.28 | 1.18 | 1.03 | 1.05 | 0.954
P fixed | 0.249 | 0.522 | 0.928 | 1.3 | 0.607 | 0.77 | 1.2 | 0.977 | 0.892
Q fixed | 1.28 | 0.613 | 0.662 | 0.903 | 0.805 | 0.872 | 0.912 | 0.839 | 0.86
R fixed | 0.602 | 0.408 | 0.554 | 0.654 | 0.542 | 0.789 | 0.787 | 0.797 | 0.814
V fixed | 1.75 | 1.85 | 0.782 | 0.855 | 1.21 | 0.71 | 0.721 | 0.812 | 0.773
W fixed | 1.16 | 1.73 | 2.11 | 1.29 | 0.812 | 1.21 | 0.941 | 1.09 | 1.25
Y fixed | 1.12 | 1.43 | 1.12 | 1 | 1.97 | 0.903 | 1.13 | 1.05 | 0.975
pThr fixed | 1.45 | 0.994 | 1.12 | 2.32 | 0.656 | 3.34 | 3.2 | 1.75 | 1.4
pTyr fixed | 1.46 | 1.33 | 1.25 | 1.81 | 1.73 | 3.38 | 2.82 | 2.06 | 1.71

PRKCE, construct: Full length, human (from UniProt Q02156)
relative phosphorylation
Details | at +1 | at +2 | at +3 | at +4 | at -1 | at -2 | at -3 | at -4 | at -5
A fixed | 0.507 | 0.48 | 0.795 | 0.905 | 1.06 | 0.774 | 0.669 | 1.12 | 1.16
D fixed | 0.169 | 0.162 | 0.342 | 0.375 | 0.373 | 0.296 | 0.223 | 0.455 | 0.383
E fixed | 0.165 | 0.138 | 0.347 | 0.334 | 0.312 | 0.308 | 0.235 | 0.558 | 0.35
F fixed | 1.7 | 0.528 | 0.831 | 0.561 | 0.588 | 0.69 | 0.691 | 0.783 | 1.28
G fixed | 0.525 | 0.366 | 1.01 | 0.967 | 1.59 | 0.908 | 0.731 | 1.08 | 1.05
H fixed | 0.66 | 1.02 | 1.25 | 1.16 | 0.936 | 1.1 | 1.09 | 1.16 | 1.12
I fixed | 1.43 | 0.515 | 0.619 | 0.6 | 0.44 | 0.393 | 0.435 | 0.689 | 0.935
K fixed | 2.1 | 4.18 | 2.99 | 3.19 | 2.52 | 2.35 | 2.17 | 2.11 | 1.67
L fixed | 1.15 | 0.441 | 0.746 | 0.567 | 0.679 | 0.425 | 0.466 | 0.639 | 0.934
M fixed | 1.18 | 0.566 | 0.581 | 0.62 | 0.813 | 0.528 | 0.545 | 0.833 | 0.744
N fixed | 0.577 | 0.501 | 0.661 | 0.921 | 0.997 | 0.834 | 0.552 | 0.822 | 0.665
P fixed | 0.473 | 0.357 | 0.604 | 1.07 | 1.21 | 0.623 | 0.708 | 0.919 | 0.921
Q fixed | 1.01 | 0.543 | 0.7 | 0.931 | 0.949 | 0.957 | 0.64 | 0.894 | 0.753
R fixed | 2.4 | 4.74 | 3.01 | 2.59 | 2.49 | 4.46 | 5.89 | 2.3 | 1.93
V fixed | 1.32 | 0.537 | 0.67 | 0.634 | 0.611 | 0.529 | 0.413 | 0.808 | 0.757
W fixed | 0.717 | 0.516 | 0.891 | 0.961 | 0.471 | 1.12 | 0.613 | 1.02 | 1.39
Y fixed | 0.928 | 1.4 | 0.95 | 0.607 | 0.968 | 0.701 | 0.934 | 0.82 | 0.956
pThr fixed | 0.851 | 0.471 | 0.573 | 0.688 | 0.378 | 0.561 | 0.657 | 0.799 | 0.932
pTyr fixed | 0.505 | 0.525 | 0.731 | 0.569 | 0.528 | 0.535 | 0.678 | 0.625 | 0.989

MAP2K5, construct: Full length, human (from UniProt Q13163)
relative phosphorylation
Details | at +1 | at +2 | at +3 | at +4 | at -1 | at -2 | at -3 | at -4 | at -5
A fixed | 0.719 | 0.806 | 0.742 | 0.876 | 0.985 | 1.01 | 1.02 | 0.982 | 0.924
D fixed | 0.453 | 0.477 | 0.592 | 0.598 | 0.918 | 0.931 | 0.998 | 0.992 | 0.898
E fixed | 0.47 | 0.454 | 0.583 | 0.62 | 0.73 | 0.732 | 0.889 | 0.982 | 0.828
F fixed | 1.12 | 0.912 | 1.29 | 0.97 | 0.899 | 1.75 | 0.962 | 1.08 | 1.2
G fixed | 0.703 | 0.748 | 0.949 | 0.998 | 1.19 | 0.942 | 1.16 | 1.08 | 0.963
H fixed | 0.886 | 2.3 | 1.1 | 1.07 | 1.15 | 1.01 | 1.02 | 1.09 | 1.17
I fixed | 1.52 | 0.717 | 0.919 | 0.898 | 0.706 | 0.696 | 0.744 | 0.74 | 0.856
K fixed | 0.872 | 1.29 | 1.14 | 1.49 | 1.14 | 0.83 | 1.08 | 1.11 | 1.09
L fixed | 1.2 | 0.711 | 1.01 | 0.836 | 1.07 | 0.841 | 0.846 | 0.783 | 0.884
M fixed | 1.62 | 0.928 | 1.06 | 0.956 | 1.11 | 0.866 | 0.943 | 0.944 | 0.889
N fixed | 0.836 | 0.935 | 0.963 | 0.891 | 1.08 | 0.855 | 0.906 | 0.947 | 0.894
P fixed | 0.636 | 0.604 | 0.714 | 1.06 | 0.809 | 0.901 | 1.07 | 0.902 | 0.894
Q fixed | 0.839 | 0.918 | 0.854 | 1.09 | 0.969 | 0.841 | 0.817 | 0.834 | 0.828
R fixed | 1.1 | 1.53 | 1.36 | 1.43 | 1.5 | 1.23 | 1.54 | 1.24 | 1.19
V fixed | 1.2 | 0.736 | 0.781 | 0.774 | 0.711 | 0.771 | 0.684 | 0.791 | 0.843
W fixed | 1.7 | 1.36 | 1.64 | 1.24 | 0.875 | 1.37 | 1.18 | 1.38 | 1.34
Y fixed | 1.14 | 1.57 | 1.3 | 1.21 | 1.17 | 1.43 | 1.14 | 1.12 | 1.32
pThr fixed | 0.902 | 0.728 | 0.733 | 0.792 | 0.844 | 1.07 | 1.34 | 1.17 | 1.29
pTyr fixed | 0.576 | 0.485 | 0.723 | 0.57 | 0.974 | 1.3 | 1.08 | 0.835 | 1.08

MYO3A, construct: aa1-308, human (from UniProt Q8NEV4)
relative phosphorylation
Details | at +1 | at +2 | at +3 | at +4 | at -1 | at -2 | at -3 | at -4 | at -5
A fixed | 0.412 | 0.7 | 0.734 | 0.973 | 0.971 | 0.873 | 1.07 | 0.953 | 1.14
D fixed | 0.178 | 0.35 | 0.257 | 0.506 | 1.19 | 0.602 | 0.814 | 1.22 | 1.14
E fixed | 0.151 | 0.271 | 0.229 | 0.425 | 0.697 | 0.382 | 0.772 | 1.19 | 1.08
F fixed | 0.71 | 0.638 | 0.858 | 0.517 | 0.847 | 1.45 | 0.821 | 0.951 | 0.819
G fixed | 0.559 | 0.815 | 0.815 | 1.34 | 1.81 | 0.691 | 1.05 | 1.12 | 1.12
H fixed | 0.634 | 1.3 | 1.02 | 0.986 | 1.07 | 1.59 | 1.31 | 1.26 | 1.11
I fixed | 1.65 | 0.572 | 0.801 | 0.72 | 0.345 | 0.684 | 0.789 | 0.801 | 0.823
K fixed | 1.49 | 3.03 | 2.71 | 2.63 | 1.12 | 0.754 | 1.2 | 0.982 | 1.13
L fixed | 2.17 | 0.728 | 1.08 | 0.771 | 0.976 | 0.498 | 0.683 | 0.74 | 0.629
M fixed | 2.55 | 0.933 | 0.883 | 0.67 | 1.22 | 0.941 | 0.903 | 0.807 | 0.81
N fixed | 0.61 | 0.737 | 0.835 | 0.853 | 1.29 | 1.21 | 1.16 | 1.19 | 1.06
P fixed | 0.313 | 0.857 | 0.766 | 0.981 | 0.568 | 0.633 | 0.959 | 0.899 | 1.09
Q fixed | 0.737 | 0.726 | 0.753 | 0.908 | 1.01 | 0.798 | 1.08 | 1.06 | 1.05
R fixed | 1.95 | 2.8 | 2.77 | 2.32 | 1.26 | 1.2 | 1.16 | 0.835 | 1.18
V fixed | 0.882 | 0.688 | 0.775 | 0.752 | 0.523 | 0.579 | 0.759 | 0.89 | 0.927
W fixed | 1.01 | 0.908 | 0.756 | 1.01 | 0.886 | 1.49 | 1.26 | 1.11 | 0.83
Y fixed | 0.985 | 0.947 | 0.956 | 0.643 | 1.21 | 2.62 | 1.21 | 0.993 | 1.08
pThr fixed | 0.523 | 0.418 | 0.71 | 0.348 | 0.573 | 0.699 | 0.939 | 1.19 | 1.06
pTyr fixed | 0.325 | 0.301 | 0.649 | 0.403 | 1.65 | 0.771 | 0.993 | 1.24 | 1.24
